Measurements taken from patent US20250002588A1 (DIAGONAL THERAPEUTICS, published 2025).
Where a chain is given by its changes, count along the chain named. Like-named read-outs stand apart in the source and are kept apart here.

B1: DGL945 (bispecific antibody, human IgG1, lambda)
heavy: EVQLLESGGGLVQPGGSLRLSCAASGFTFSDYYMTWIRQAPGKGLEWVSSISGGSTYYADSRKGRFTISRDNSENTLYLQMNSLRAEDTAVYYCARDFGVAGWFGQYGMDVWGQGTLVTVSSPLAPEVQLLESGGGLVQPGGSLRLSCAASGFTFSSYAMSWVRQAPGKGLEWVANINQDGSEKNYVDSMRGRFTISRDNSKNTLYLQMNSLRAEDTAVYYCAREFDYWGQGTLVTVSSASTKGPSVFPLAPSSKSTSGGTAALGCLVKDYFPEPVTVSWNSGALTSGVHTFPAVLQSSGLYSLSSVVTVPSSSLGTQTYICNVNHKPSNTKVDKKVEPKSCDKTHTCPPCPAPEAAGAPSVFLFPPKPKDTLYITREPEVTCVVVDVSHEDPEVKFNWYVDGVEVHNAKTKPREEQYNSTYRVVSVLTVLHQDWLNGKEYKCKVSNKALPAPIEKTISKAKGQPREPQVYTLPPSRDELTKNQVSLTCLVKGFYPSDIAVEWESNGQPENNYKTTPPVLDSDGSFFLYSKLTVDKSRWQQGNVFSCSVMHEALHNHYTQKSLSLSPG
light: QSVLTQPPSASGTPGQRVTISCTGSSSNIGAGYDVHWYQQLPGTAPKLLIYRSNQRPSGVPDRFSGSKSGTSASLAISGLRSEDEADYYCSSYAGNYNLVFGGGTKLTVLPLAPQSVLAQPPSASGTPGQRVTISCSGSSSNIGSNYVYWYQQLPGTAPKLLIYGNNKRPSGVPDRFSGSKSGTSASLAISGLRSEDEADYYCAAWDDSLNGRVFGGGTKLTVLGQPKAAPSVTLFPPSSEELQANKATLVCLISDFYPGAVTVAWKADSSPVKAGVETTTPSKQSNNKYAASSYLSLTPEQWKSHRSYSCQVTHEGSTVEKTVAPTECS
B2: DGL1146 (bispecific antibody, human IgG1, lambda)
heavy: B1 heavy with Y374M, T376S, E378T, M550L, N556S
light: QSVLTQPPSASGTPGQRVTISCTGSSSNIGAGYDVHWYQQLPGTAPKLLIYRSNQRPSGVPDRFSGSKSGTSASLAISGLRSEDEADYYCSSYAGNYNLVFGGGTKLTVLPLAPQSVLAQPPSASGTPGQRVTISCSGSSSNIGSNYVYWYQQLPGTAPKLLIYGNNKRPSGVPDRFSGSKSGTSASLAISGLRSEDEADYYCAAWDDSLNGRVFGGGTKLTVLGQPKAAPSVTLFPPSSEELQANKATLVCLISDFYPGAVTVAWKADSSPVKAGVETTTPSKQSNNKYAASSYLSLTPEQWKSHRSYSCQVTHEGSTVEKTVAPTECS
B3: DGL949 (bispecific antibody, human IgG1, lambda)
heavy: B1 heavy with T35N, R62V, Q106Y, A159W, N178K, Y228F
light: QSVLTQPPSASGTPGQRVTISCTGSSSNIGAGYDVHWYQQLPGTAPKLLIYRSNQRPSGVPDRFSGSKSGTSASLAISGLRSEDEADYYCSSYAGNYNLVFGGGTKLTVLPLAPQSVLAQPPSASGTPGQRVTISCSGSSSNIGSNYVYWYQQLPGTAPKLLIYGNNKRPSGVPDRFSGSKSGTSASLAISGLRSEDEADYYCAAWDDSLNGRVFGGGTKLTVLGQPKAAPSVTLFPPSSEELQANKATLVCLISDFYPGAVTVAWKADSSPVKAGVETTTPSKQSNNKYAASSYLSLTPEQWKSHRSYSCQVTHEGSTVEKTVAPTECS
B4: DGL947 (bispecific antibody, human IgG1, lambda)
heavy: B1 heavy with T35N, R62V, Y107F, A159W, N185Y, F226Y
light: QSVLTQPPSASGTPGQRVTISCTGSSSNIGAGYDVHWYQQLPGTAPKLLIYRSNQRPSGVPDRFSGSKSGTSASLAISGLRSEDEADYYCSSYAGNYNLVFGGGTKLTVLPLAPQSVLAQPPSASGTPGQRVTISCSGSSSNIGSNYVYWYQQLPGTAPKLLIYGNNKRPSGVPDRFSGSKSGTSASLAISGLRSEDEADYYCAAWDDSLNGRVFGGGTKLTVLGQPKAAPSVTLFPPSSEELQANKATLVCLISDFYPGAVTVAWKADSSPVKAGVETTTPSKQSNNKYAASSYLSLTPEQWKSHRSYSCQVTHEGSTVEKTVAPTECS
B5: DGL880 (bispecific antibody)
chain 1: not shown
chain 2: EVQLLESGGGLVQPGGSLRLSCAASGFTFSDYYMTWIRQAPGKGLEWVSSISGGSTYYADSRKGRFTISRDNSENTLYLQMNSLRAEDTAVYYCARDFGVAGWFGQYGMDVWGQGTLVTVSSGGGGSGGGGSGGGGSQSVLTQPPSASGTPGQRVTISCTGSASNIGAGYDVHWYQQLPGTAPKLLIYRSNQRPAGVPDRFSGSKSGTSASLAISGLRSEDEADYYCSSYAGLYNLVFGGGTKLTVLDKTHTCPPCPAPEAAGAPSVFLFPPKPKDTLMISRTPEVTCVVVDVSHEDPEVKFNWYVDGVEVHNAKTKPREEQYNSTYRVVSVLTVLHQDWLNGKEYKCKVSNKALPAPIEKTISKAKGQPREPQVCTLPPSRDELTKNQVSLSCAVKGFYPSDIAVEWESNGQPENNYKTTPPVLDSDGSFFLVSKLTVDKSRWQQGNVFSCSVMHEALHNHYTQKSLSLSPGWSHPQFEK

What was measured:
[1] = biological target: T1, ALK-1/BMPR-2 receptor pair of the PathHunter U2Os dimerization cells (DiscoverX 93-0962C3) (UniProt P37023 22-503; Q13873 27-1038); test: cell-based or functional assay
[2] = biological target: T1, ALK-1/BMPR-2 receptor pair of the …; test: cell-based or functional assay; remark: listed apart in the source

T1 sequence (P37023 22-503, chain 1 of 2): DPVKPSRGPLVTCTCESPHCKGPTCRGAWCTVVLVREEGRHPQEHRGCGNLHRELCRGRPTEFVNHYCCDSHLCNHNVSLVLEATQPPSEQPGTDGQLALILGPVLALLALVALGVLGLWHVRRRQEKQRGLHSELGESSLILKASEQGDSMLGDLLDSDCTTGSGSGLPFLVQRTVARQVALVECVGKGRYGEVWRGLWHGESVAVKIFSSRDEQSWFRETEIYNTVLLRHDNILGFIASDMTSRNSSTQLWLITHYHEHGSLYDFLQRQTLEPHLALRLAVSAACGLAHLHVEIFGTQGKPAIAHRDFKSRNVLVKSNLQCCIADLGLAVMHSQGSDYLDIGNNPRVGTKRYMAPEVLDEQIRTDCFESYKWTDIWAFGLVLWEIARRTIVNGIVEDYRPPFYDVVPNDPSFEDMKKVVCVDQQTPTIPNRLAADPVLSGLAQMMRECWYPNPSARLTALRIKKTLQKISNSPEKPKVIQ
T1 sequence (Q13873 27-1038, chain 2 of 2): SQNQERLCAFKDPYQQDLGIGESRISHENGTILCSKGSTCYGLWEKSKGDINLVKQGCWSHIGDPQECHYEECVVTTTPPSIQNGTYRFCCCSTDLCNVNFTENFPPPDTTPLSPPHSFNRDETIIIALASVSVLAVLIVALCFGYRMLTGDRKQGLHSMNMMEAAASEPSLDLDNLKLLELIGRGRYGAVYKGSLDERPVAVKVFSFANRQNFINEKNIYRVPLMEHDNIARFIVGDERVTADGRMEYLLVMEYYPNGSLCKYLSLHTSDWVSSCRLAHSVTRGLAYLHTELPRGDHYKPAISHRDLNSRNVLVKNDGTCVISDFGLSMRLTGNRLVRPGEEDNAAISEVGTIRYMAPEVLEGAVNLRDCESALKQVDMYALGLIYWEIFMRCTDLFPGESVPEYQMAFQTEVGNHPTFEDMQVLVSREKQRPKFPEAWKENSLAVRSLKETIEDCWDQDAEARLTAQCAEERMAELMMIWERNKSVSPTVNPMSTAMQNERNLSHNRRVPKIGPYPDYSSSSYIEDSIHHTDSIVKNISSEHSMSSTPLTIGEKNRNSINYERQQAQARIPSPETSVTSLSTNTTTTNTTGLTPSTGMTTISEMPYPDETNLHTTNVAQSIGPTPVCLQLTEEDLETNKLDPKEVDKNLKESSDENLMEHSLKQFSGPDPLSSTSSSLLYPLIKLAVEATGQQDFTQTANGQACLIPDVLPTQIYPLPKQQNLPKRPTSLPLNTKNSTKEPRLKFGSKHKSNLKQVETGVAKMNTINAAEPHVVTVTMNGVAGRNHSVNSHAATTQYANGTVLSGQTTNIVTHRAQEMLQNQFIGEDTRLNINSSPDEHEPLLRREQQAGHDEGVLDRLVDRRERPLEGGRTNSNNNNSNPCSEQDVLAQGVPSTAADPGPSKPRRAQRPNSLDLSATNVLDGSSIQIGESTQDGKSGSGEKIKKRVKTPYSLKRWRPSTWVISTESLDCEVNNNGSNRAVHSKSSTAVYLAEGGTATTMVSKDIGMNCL

Binder | % Emax BMP9 [1] | % Emax BMP9 [2] | Emax (RLU) [2]
B1 | 78% | – | –
B2 | 78% | – | –
B3 | 42% | – | –
B4 | 47% | – | –
B5 | – | 66% | 1.68e+06 RLU
